Each binder was assayed against T1, His-tagged human GPC3 (human, UniProt P51654 25-559, limits assumed) (assay: binding assay not named for this figure; Octet (BLI) is the method of Example 2B).
T1 construct: Captured on HIS1K sensors in the Octet assay; also called human GPC3 antigen; Glypican 3; not shown: His tag
Protocol: (§1) After humanization, GPC3 binding arms were engineered with single point mutations in the variable light domain with the aim to create a ladder of GPC3 binding affinity, illustrative sequences for which are depicted in FIG. 13. 73 variable light domain variants were engineered and paired with GPC3-A H1.1 (see Example 3C for description of GPC3-A H1.1 variant). The GPC3-A variants were engineered in the 1+1 Fab-scFv-Fc bsAb format and binding for GPC3 antigen was measured using Octet, a BioLayer Interferometry (BLI)-based method. Experimental steps for Octet generally include the following: Immobilization (capture of ligand to a biosensor); Association (dipping of ligand-coated biosensors into wells containing the analyte); and Dissociation (returning of biosensors to well containing buffer). For ease of clinical development (e.g. by investigating the therapeutics in model animals), it is useful for the binding domains to be cross-reactive for cynomolgus antigen; therefore, binding to both human and cynomolgus GPC3 antigen were investigated. His-tagged human and cynomolgus GPC3 were captured on HIS1K sensors then dipped into multiple concentrations of the bispecific antibodies. The resulting dissociation constant (KD) are depicted in FIG. 23.

T1 sequence (P51654 25-559 limits assumed): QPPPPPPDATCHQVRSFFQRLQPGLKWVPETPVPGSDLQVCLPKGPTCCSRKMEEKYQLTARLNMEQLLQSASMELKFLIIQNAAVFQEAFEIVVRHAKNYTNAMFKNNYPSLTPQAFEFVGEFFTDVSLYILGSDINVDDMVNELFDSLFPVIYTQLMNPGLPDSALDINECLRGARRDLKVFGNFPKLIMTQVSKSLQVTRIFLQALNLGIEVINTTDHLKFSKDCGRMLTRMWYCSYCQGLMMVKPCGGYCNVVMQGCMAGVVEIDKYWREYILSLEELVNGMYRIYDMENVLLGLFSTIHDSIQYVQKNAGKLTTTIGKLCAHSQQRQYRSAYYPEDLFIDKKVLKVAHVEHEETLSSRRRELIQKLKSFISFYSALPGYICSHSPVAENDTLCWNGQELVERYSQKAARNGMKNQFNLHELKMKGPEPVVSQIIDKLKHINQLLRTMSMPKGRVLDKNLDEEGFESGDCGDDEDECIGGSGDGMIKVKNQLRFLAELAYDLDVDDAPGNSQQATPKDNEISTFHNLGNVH

Row | Binder | Kd [nM]
1 | XENP36933 H1.1_L1.67 (bispecific antibody, also called [GPC3]H1.1_L1.67; VL G29K Y32W; copies: 1 + 1 + 1) heavy: QVQLVQSGAEVKKPGASVKVSCKASGYTFTDYEMHWVRQAPGQGLEWMGALEPKTGDTAYSQKFQGRVTMTADKSISTAYMELSRLRSDDTAVYYCTRFYSYTYWGQGTLVTVSSASTKGPSVFPLAPSSKSTSGGTAALGCLVKDYFPEPVTVSWNSGALTSGVHTFPAVLQSSGLYSLSSVVTVPSSSLGTQTYICNVNHKPSDTKVDKKVEPKSCDKTHTCPPCPAPPVAGPSVFLFPPKPKDTLMISRTPEVTCVVVDVKHEDPEVKFNWYVDGVEVHNAKTKPREEEYNSTYRVVSVLTVLHQDWLNGKEYKCKVSNKALPAPIEKTISKAKGQPREPQVYTLPPSREEMTKNQVSLTCDVSGFYPSDIAVEWESDGQPENNYKTTPPVLDSDGSFFLYSKLTVDKSRWEQGDVFSCSVMHEALHNHYTQKSLSLSPGK scFv-Fc: not shown light: DVVMTQSPLSLPVTLGQPASISCRSSQSLVHSNKNTWLHWYQQRPGQSPRLLIYKVSNRFSGVPDRFSGSGSGTDFTLKISRVEAEDVGVYFCSQNTHVPPTFGSGTKLEIKRTVAAPSVFIFPPSDEQLKSGTASVVCLLNNFYPREAKVQWKVDNALQSGNSQESVTEQDSKDSTYSLSSTLTLSKADYEKHKVYACEVTHQGLSSPVTKSFNRGEC | 550

Each binder was assayed against T2, His-tagged cynomolgus GPC3 (cynomolgus, UniProt A0A2K5VK50 24-558) in the same assay as above.
T2 construct: Captured on HIS1K sensors in the Octet assay; also called cynomolgus GPC3 antigen; cyno GPC3; not shown: His tag
Protocol: as §1

Row | Binder | Kd [nM]
2 | XENP36933 H1.1_L1.67 (bispecific antibody, also called [GPC3]H1.1_L1.67; VL G29K Y32W; copies: 1 + 1 + 1) heavy: QVQLVQSGAEVKKPGASVKVSCKASGYTFTDYEMHWVRQAPGQGLEWMGALEPKTGDTAYSQKFQGRVTMTADKSISTAYMELSRLRSDDTAVYYCTRFYSYTYWGQGTLVTVSSASTKGPSVFPLAPSSKSTSGGTAALGCLVKDYFPEPVTVSWNSGALTSGVHTFPAVLQSSGLYSLSSVVTVPSSSLGTQTYICNVNHKPSDTKVDKKVEPKSCDKTHTCPPCPAPPVAGPSVFLFPPKPKDTLMISRTPEVTCVVVDVKHEDPEVKFNWYVDGVEVHNAKTKPREEEYNSTYRVVSVLTVLHQDWLNGKEYKCKVSNKALPAPIEKTISKAKGQPREPQVYTLPPSREEMTKNQVSLTCDVSGFYPSDIAVEWESDGQPENNYKTTPPVLDSDGSFFLYSKLTVDKSRWEQGDVFSCSVMHEALHNHYTQKSLSLSPGK scFv-Fc: not shown light: DVVMTQSPLSLPVTLGQPASISCRSSQSLVHSNKNTWLHWYQQRPGQSPRLLIYKVSNRFSGVPDRFSGSGSGTDFTLKISRVEAEDVGVYFCSQNTHVPPTFGSGTKLEIKRTVAAPSVFIFPPSDEQLKSGTASVVCLLNNFYPREAKVQWKVDNALQSGNSQESVTEQDSKDSTYSLSSTLTLSKADYEKHKVYACEVTHQGLSSPVTKSFNRGEC | 600

These binders were tested against T1, His-tagged human GPC3 (assay: binding assay not named for this figure; human GPC3 per legend paragraph 61).

Row | Binder | Kd [nM]
3 | GPC3-A variable heavy variant H1.1 (D52E) with L1 (antibody, V domains shown, pairing with L1 follows from the library being made on humanized GPC3-A and from pair c) of claim 53; also called [GPC3]H1.1_L1) VH: QVQLVQSGAEVKKPGASVKVSCKASGYTFTDYEMHWVRQAPGQGLEWMGALEPKTGDTAYSQKFQGRVTMTADKSISTAYMELSRLRSDDTAVYYCTRFYSYTYWGQGTLVTVSS VL: DVVMTQSPLSLPVTLGQPASISCRSSQSLVHSNGNTYLHWYQQRPGQSPRLLIYKVSNRFSGVPDRFSGSGSGTDFTLKISRVEAEDVGVYFCSQNTHVPPTFGSGTKLEIK | 3.92
4 | humanized GPC3-A H1_L1 (antibody, V domains shown, also called [GPC3]H1_L1) VH: QVQLVQSGAEVKKPGASVKVSCKASGYTFTDYEMHWVRQAPGQGLEWMGALDPKTGDTAYSQKFQGRVTMTADKSISTAYMELSRLRSDDTAVYYCTRFYSYTYWGQGTLVTVSS VL: DVVMTQSPLSLPVTLGQPASISCRSSQSLVHSNGNTYLHWYQQRPGQSPRLLIYKVSNRFSGVPDRFSGSGSGTDFTLKISRVEAEDVGVYFCSQNTHVPPTFGSGTKLEIK | 3.17
5 | XENP 23064 H1_L1.1 (antibody, human IgG1, kappa, V domains shown, VH WT, VL mutation (Kabat) N28Q; also called [GPC3]H1_L1.1; VL N28Q; copies: 2 + 2) VH: QVQLVQSGAEVKKPGASVKVSCKASGYTFTDYEMHWVRQAPGQGLEWMGALDPKTGDTAYSQKFQGRVTMTADKSISTAYMELSRLRSDDTAVYYCTRFYSYTYWGQGTLVTVSS VL: DVVMTQSPLSLPVTLGQPASISCRSSQSLVHSQGNTYLHWYQQRPGQSPRLLIYKVSNRFSGVPDRFSGSGSGTDFTLKISRVEAEDVGVYFCSQNTHVPPTFGSGTKLEIKR | 28.2
6 | XENP 23061 H1.2_L1 (antibody, human IgG1, kappa, V domains shown, VH mutation (Kabat) D52N, VL WT; also called [GPC3]H1.2_L1; VH D52N; copies: 2 + 2) VH: QVQLVQSGAEVKKPGASVKVSCKASGYTFTDYEMHWVRQAPGQGLEWMGALNPKTGDTAYSQKFQGRVTMTADKSISTAYMELSRLRSDDTAVYYCTRFYSYTYWGQGTLVTVSS VL: DVVMTQSPLSLPVTLGQPASISCRSSQSLVHSNGNTYLHWYQQRPGQSPRLLIYKVSNRFSGVPDRFSGSGSGTDFTLKISRVEAEDVGVYFCSQNTHVPPTFGSGTKLEIKR | 5.81
7 | XENP 23062 H1.3_L1 (antibody, human IgG1, kappa, V domains shown, VH mutation (Kabat) D52Q, VL WT; also called [GPC3]H1.3_L1; VH D52Q; copies: 2 + 2) VH: QVQLVQSGAEVKKPGASVKVSCKASGYTFTDYEMHWVRQAPGQGLEWMGALQPKTGDTAYSQKFQGRVTMTADKSISTAYMELSRLRSDDTAVYYCTRFYSYTYWGQGTLVTVSS VL: DVVMTQSPLSLPVTLGQPASISCRSSQSLVHSNGNTYLHWYQQRPGQSPRLLIYKVSNRFSGVPDRFSGSGSGTDFTLKISRVEAEDVGVYFCSQNTHVPPTFGSGTKLEIKR | 3.13
8 | XENP 23063 H1.4_L1 (antibody, human IgG1, kappa, V domains shown, VH mutation (Kabat) D52S, VL WT; also called [GPC3]H1.4_L1; VH D52S; copies: 2 + 2) VH: QVQLVQSGAEVKKPGASVKVSCKASGYTFTDYEMHWVRQAPGQGLEWMGALSPKTGDTAYSQKFQGRVTMTADKSISTAYMELSRLRSDDTAVYYCTRFYSYTYWGQGTLVTVSS VL: DVVMTQSPLSLPVTLGQPASISCRSSQSLVHSNGNTYLHWYQQRPGQSPRLLIYKVSNRFSGVPDRFSGSGSGTDFTLKISRVEAEDVGVYFCSQNTHVPPTFGSGTKLEIKR | 3.62
9 | XENP 23065 H1_L1.2 (antibody, human IgG1, kappa, V domains shown, VH WT, VL mutation (Kabat) N28Y; also called [GPC3]H1_L1.2; VL N28Y; copies: 2 + 2) VH: QVQLVQSGAEVKKPGASVKVSCKASGYTFTDYEMHWVRQAPGQGLEWMGALDPKTGDTAYSQKFQGRVTMTADKSISTAYMELSRLRSDDTAVYYCTRFYSYTYWGQGTLVTVSS VL: DVVMTQSPLSLPVTLGQPASISCRSSQSLVHSYGNTYLHWYQQRPGQSPRLLIYKVSNRFSGVPDRFSGSGSGTDFTLKISRVEAEDVGVYFCSQNTHVPPTFGSGTKLEIKR | 7.43

Reference: US20240034815A1 (Xencor, published 2024)
